Measurements from the nanobody polyreactivity screen of Harvey et al. (2022).

Assay: yeast display, Sf9 membrane polyspecificity reagent, FACS + sequencing; frameworks hold sequencing errors
Outline: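 A nanobody's polyreactivity label depends on the gate it was sorted from. Yeast display cells were stained with 10% biotinylated, detergent-solubilized Sf9 membrane reagent for 1 hour at 4 °C, enriched on streptavidin microbeads and sorted by FACS. The low and high (top ~1%) gates were set on anti-HA fluorescence for expression and streptavidin fluorescence for reagent binding.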

| Sequence | polyreactivity (PSR sort gate) |
| --- | --- |
| QVQLVESGGGLVQAGGSLRLSCAASGRTFSKYAMGWYRQAPGKERELVAAISSGGSTNYADSVKGRFTISRDNAKNTVYLQMISLKPEDTAVYYFARTTNWRHSYAYYYLHGHDYWGQGTQVTVSS | high polyreactivity |
| QVQLVESGGGLVQAGGSLRLSCAASGLTFTDYAMGWNRQAPGKERELVAGIWDGGSTYYADSVNGRFTISRDNPKNTVYLLMNSLKPEDTAVYYCAARYAGGFYYWGQGTQVTVSS | high polyreactivity |
| QVQLVESGGGLVQAGGSLRLSCAASGSTFFRYAMGWYRQAPGKERELVAAITSGGNTYYADSVKGRFTISRDNAKNTVYLQMNSLKPEDSAVYYCAADVYHWIHEYDYWGQGTQVTVSS | low polyreactivity |
| QVQLVESGGCLVQAGGSLRLSCAASGRNIAYNAMGWSRQAPGKERELVASISSGGSTFYADSVKGRFTISRDNAKNTVYLQMNSLKPEDTAVYYCAKGGYWGQGTQVSVSS | high polyreactivity |
| QVQLVESGGGLVQAGGSLRLSCAASGFIFITVNAMGWYRQAPGKEREFVAAITRSGTGTYYADSVKGRFTISRDNAKNTVYLQMNSLKPVDTAVYYCAADATSTGAYDYWGQGTQVTVSS | low polyreactivity |
| QVQLVESGGGLVQAGGSLRLSCAASGRTFIKYALGSYRQAPGKERELVAAISRNGGSTNYADSVKGRFTISRDNAKNTVYLLMNSLKPEDPAVYYCAAVGTVSRTVGYNYWGQGSQVTVSS | high polyreactivity |
| QVQLVESGGGLVQAGGSLRLSCAASGFTFKTYAMGWYRQAPGKEREFVAAISSRGGSTYYADSVKGRFTISRDNAKNTVYLQMNSLKPEDTAVYYCATATRPRDRYSRYGYWGQGTQVTVSS | high polyreactivity |
| QVQLVESGGGLVQAGGSLRLSCAASGFTFTSYTMGWYRQAPGKERELVAGISTNGGTTYYADSVKGRFTISRDNAKNTVYLQMNSLKPEDTAVYYCNAKRKYGRFPKKYYYWGQGTQVTVSS | high polyreactivity |
| QVQLVESGGGLVQAGGSLRLSCAASGRTFQVNAMGWYRQAPGKERELVAAISRRGGSTYYADSVKGRFTISRDNAKNTVYLQMNSLKPEDTAVYYCAATASTYYLWRYNYWGQGTQVSVSS | high polyreactivity |
| QVQLVESGGGLVQAGGSLRLICAASGSIFFGNAMGWYRQAPGKERELDAAITLRGGSTYYADSVKGRFTISRDNAKNTVYLQMNSLKPEDTAVYYCNAVSKRYGYGYWGQGTQVTVSS | high polyreactivity |
| QVQLVESGGGLVQAGGSLSLSCAASGRTFYYYAMGWYRQAPGKERELVAAITSRGTSTYYADSVKGRFTISRDNAKNTVYLQMNSLKPEDTAVYYCAAGFISYYGNCYDYWGQGTQVTVSS | high polyreactivity |
| QVQLVESGGGLVQAGGSLRLSCAASGRIFSWNAMGWYRQAPGKERELVARITNGGSTYYADSVKGRFTISRDNAKNTVYLQMNSLKPEDTAVYYCAAKYRYYWSSKSKGDYWGQGTQVTVSS | high polyreactivity |
| QVQLVESGGGLVQAGGSLRLSCAASGSIVSGYAMRWYRQAPGKQRELVAAISRGGSTNYADSVKGRFTISRDNAKNTVYLQMNSLKPEDTAVYYCANTPTKYHYAFGYWGQCTQVTVSS | low polyreactivity |
| QVQLVESGARLVQAGGSLRLSCAPSGSIFAYNAMGWYRQAPGKERELVAAITKSGGSTYYADSVKGRFTISRDHAKNTVYLQMNSLKPEDTAVDYCNVVVPHSISSHGDYWGQGTQVTVSS | low polyreactivity |
| QVQLQESRGGLVQAGGSLRLSCAASGTISDRAGMGWYRQAPAKNAIVATIDRGTNTNYADSVKGRFTISRDNAKNTVYLQMNSLKPEDTAVYNCAADGRYYIYLDYWGQGTQVTVSS | low polyreactivity |
| QVQLVESGGGLVQAGGSLRLSCAASGSTLGINAMGWYRQAPGKERELVAAITWNGGSTYYADSVKGRFTISRDNAKNTVYLQMNSLKPEDTAVYYCAARTYSSRYYRTREGFDYYYWGQGTQVTVSS | high polyreactivity |
| QVQLVESGGGLVQAGGSLRLSCAASGRTNKSNTLGWYRQEPGKQMELVAAISWRVGSTYYADSVKGRFTISRDNAKNTVYLQMNSLKPEDTAVYYCAARPWGYTVGSNYRYYLYGYWGLGTQVTVSS | high polyreactivity |
| QVQLVESGGGLVQAGGSLRLSCAASGSTFRYYAMAWYREAPGKERELVAAISRRGGSTYYADSVKGRFTISRDNAKNTVYLQMNSLIPEDTAVYYCNAAASTFTSWIRGPGVCYDYWGQGTQVTVSS | high polyreactivity |
| QFQLVESGGGLVQAGGSLRLSCAASGCIFLYYAMGSYRPATGNERELVASISSGGSTNYADSVKGRFTISRDNAKNTVYLQMNSLKPEDTAVYYCAARPYGGGRRSIYYYWGQGTQVTESS | high polyreactivity |
| QVQLVESGGGLVQAGGSLRLSCAASGRTFLALGWYRPAPGKERELVAAISRTNYADSVKGRVTISRDNAKNTVYLQMHSLKPEETAVYYCAKEYYSYEGYLGLSYVRRYDYWGQGTQVTVSS | low polyreactivity |
| QVQLVESGGGLVQAGGSLRLSCAASGRISGVNAMGWSRQAPGKERELVATISGSGGRTYYADSVKGRFTISRDNAKNTVYLQMNSLNPEDTGGYYCNSMVERGGYFSRRFDFWGQGSQVTVSS | low polyreactivity |
| QDQHVESGGGLVQAGGSLRLSCAASGRTFYSYTMGWYRPPPGKERELVAAINRSGGRTYYADSVKGRFTISRDNAKNTVYLQRNSLKPEDTAVYYCNALEYYRFDYWGQCTQVTVSS | high polyreactivity |

| Sequence | polyreactivity (PSR sort gate) |
| --- | --- |
| QVQLVESGGGLVQAGGSLRLSCADSVFTFGYYAMGWYRQAPGKERELVAAISRNGGRTYYADSVKGRFTISRDNAKNNVYLQMNSLKTVYTAVHYCNALLFFLNRVWSFDYWGQGTQVTVSS | high polyreactivity |
| QVQLVESGGGLVQAGGSLRLSCAASGIIFHYYAMGWSRPEPGKERELVAAITSSGDRTYYADSVKGRFTISRDTAKNTVYLQMNSLKPEDTAVYYCAKDVWRWFGYWGQGTQVTVSS | high polyreactivity |
| QVQLVESGGGLVQAGGSLSLSCAASGSPFLYYTMGWYRQAPGKERELVATISRDGSTNYADSVKGRFTISRDNAKNSVYLQMNSLKPEDTAVYYCAAARDSIGYGQYDYWGQGTQVTVSS | low polyreactivity |
| QVQLVESGGGLVQAGGSLRLSCAASGFTLTLRYAMGWYRQAPGKERELVAAISSGGRTKYADSVKGRFTISRDNAKNTVYLQMNSLKPEDTAVYYCAADLYDPYHVYGYNYWGQGTQVTVSS | low polyreactivity |
| QVQLVESGGGLVQAGGRLRLTCAASGRIFVIYAMRWYRQAPGKERELVAGITRGDRTYADSVKARFTISRDNAKNTVYLQMNSLKPEDTAVYYCNADTGYRFDYWGQGTQVTVSS | high polyreactivity |
| QVQLVESGGGLVQAGGSLRLSCAASGSTFRRNAMGWYRQAPGKERELVAAISRSGGSTYYADSVKGRFTISRDNAKNTVYLQMNSLKPEDTAVYYCAADAARTSHWSGDYWGQGTQVTVSS | high polyreactivity |
| QDQLVESGGGLVQAGGSLRLSCAASGSIFADYVMGWYRQAPGKERELVAAITRRGRTYYADSVKGRFTISRDNAKNNVYLQMNSLKPEDTAVYYCAKVAYGKIDSWGQGTQVTVSS | low polyreactivity |
| QVQLVESGGGLVQAGGSLRLSCAASGRTFVSYTMGWYRQAPGKERELVAAISSGGSTTYADSVKGRFTISRDNAKNTVYLQMNSLKPEDTAVYYCNARYGWSYWSKYDYWGQGTQVTVSS | high polyreactivity |
| QVQLVESGGGLVQAGGSLRLSCAASGTIFTVYALGWYRQPPGKERELVAGISSGAGTTYADSVKGRFTISRDNAKNTVYLQMNSMKPEDTAVYYCAAYTWDTDHYWYGYVPYDYWGQGTQVTVSS | low polyreactivity |
| QVQLVESGGGLVQAGGSLRLSCAASGLIFSTNDMGWYRQAPGKERELVAAITSDVSTYYADSVKGRFTISRDNAKNTVYLQMNSLKPEDTAVYYCAKDDSGYINWRYDYWGQGTQVTVSS | low polyreactivity |
| QVQLVESGGGLVQAGGSLRLSCAASGSIFGYYAMGWYRQAPGKERELVAAISWSGGSTYYADSVKGRFTISRDNAKNTVYLQMNSLKPEDTAVYYCAATSRGNDSQKYYYWGQGTQVTVSS | low polyreactivity |
| QVQLVESGGGLVQAGGSLRLSCAASGRIFVYNVMGRYRQAPGKERELVAAISWGTGSTYADSVKGRFTISRDNAKNTVYLQMNSLKPEDTAVYYCAADSFIPPYDHWGQGTQVTVSS | low polyreactivity |
| QVQLVESGGGLVQAGGSLRLSCAASGRTFYIYAMGGNRQATGKERELVAAITWRGGRTYYADSVKGRFTISRDNAKNTFYLQMNSLKPEDTAVYYCGARTGQGPMYKHWGQGTQVTLSS | high polyreactivity |
| QVQLVESGGGLVQAGVSLRLSCAASGVNAMGWYRQAPGKEREFVAAITSIGGSTYYADSVKGRFTISRDNAKNTVYLQMNSLKPEDTAVYYCNTDRGPVKVSPLYESWGQGTQVTVSS | low polyreactivity |
| QVQLVESGGGLVQAGGSLRLSCAASGSNFGYYAMGWYRQAPGQERELVAAINSSGGSTYYADSVKGRFTISRDNAKNTVYLQMNSLKPEDTAVYYCAVRTRYKFNYWGQGTQVTVSS | low polyreactivity |
| QVQLVESGGGLVQAGGSLRLSFAASGFTLVGYTMGWYRQAPGKERELVAAINWSGGRTYYADSVKGRFTISRDNAKNTVYLQMNSLKPVDTAVYYCAADSLRYKKYYYWGQGTQVTVSS | high polyreactivity |
| QVQIVDSGGGLVQAGGSLRLSCAASGSTFRAYAMGWYRQSPGKEWELVAAISSSGGSTYYADSVKGRFTISRDNAKITVYLQMNSLKPEDTAVYYFAAAFLAAGRNVRYYWGQGTQVTVSS | high polyreactivity |
| QVQLVESGGGLVQAGGSLRLSCAASGSISTWYAMGWYRQAPGKERELVAAINSGDSTYYADSVKGRFTISRDNAKNTVYLQMNSLKPEDTAVYYCAASSYSSKPFDYWGQGTQVTVSS | high polyreactivity |
| QVQLVESGVGLVQAGGSLRLSCAASGFTFSYNALGWYRQAPGKERELVAAISSSGGSTYYADSVKGRFTISRDNAKNTVYLQMNILKPEDTAVYYCAVPYLTLYGRTYDYWGHGTQVTVSS | high polyreactivity |
| QVQLVESGGGLVQAGGSLRLSCAASGSTFVSYAMGWYRQAPGKERELVAASSRSGGSTYYADSVKGRFTISRDNAKNTVYLQMNILIPEDTAVYYCAADGRGPSKRNRDYWGQGTQVTVSS | high polyreactivity |
| QVQLVESGGGLVQAGGTLRLSCAASGSIFYGNAMGWYREAPGKERQLVAAIDGTGASTYYADSVKGRFTISRDNAKNPVYLQMNSLKPEDTAVYYCNKALTSKDYPVRTVERDYWGQGTQVTVSS | low polyreactivity |
